In the experiment the target is T1, receptor binding domain (RBD) of the SARS-CoV-2 spike protein, Delta variant (SARS-CoV-2, Delta (B.1.617.2), strain).
T1 construct: also called Delta RBD; source: bought: Acro Biosystems
The experiment in a line: flow cytometry on cells. Conditions: one partner purified. (A flow cytometer gives signals particle by particle.)

One molecule from paper PMC12520519, “RESP2: An Uncertainty Aware Multi‐Target Multi‐Property Optimization AI Pipeline for Antibody Discovery” (Advanced Science, 2025) can be followed below.

In general, Kd refers to the constant that tells how readily two partners part at equilibrium. Low values mean a tighter complex, high ones a looser complex.

B1: Delta-6 scFv (scFv, V domains shown)
VH: EVQLLESGGGLVQPGGTLRLSCAASGFIVSSNYMSWVRQAPGKGLEWVSLVYPGGSTYYADSVKGRFTVSRDNSKNTLYLQMNSLRAEDMAVYYCARDLPSGVDAVDAFDIWGQGTMVTVSS
VL: DIRVTQSPSSLSASVGDRVSITCRASQIISGYLNWYQQKPGSAPQLLIYASSSLQSGVPPRFSGSRSGTEFTLTISSLQPEDFATYYCQQTYSIPFTFGPGTKVDIK
notes: also called WT Delta-6 scFv; starting clone
In turn, B1 yielded an equilibrium dissociation constant (Kd) of 1.3 nM.
